Data reported in the Immune Epitope Database (IEDB).

Key:
[1] = target: HLA-B*18:01; experiment: IEDB peptide-MHC binding, purified MHC/competitive/radioactivity; filed as Kd, often an IC50 or EC50 that approximates it; ≥ and ≤ were set here for values at or beyond the usual limits of such assays
[2] = target: HLA-B*40:01; experiment: as above
[3] = target: HLA-B*40:02; experiment: as above
[4] = target: HLA-B*44:02; experiment: as above
[5] = target: HLA-B*44:03; experiment: as above
[6] = target: HLA-B*45:01; experiment: as above
[7] = target: HLA-A*01:01; experiment: IEDB peptide-MHC binding, purified MHC/direct/fluorescence; filed as Kd, often an IC50 or EC50 that approximates it; ≥ and ≤ were set here for values at or beyond the usual limits of such assays
[8] = target: HLA-A*02:01; experiment: as above
[9] = target: HLA-A*03:01; experiment: as above
[10] = target: HLA-A*11:01; experiment: as above
[11] = target: HLA-A*24:02; experiment: as above
[12] = target: HLA-A*26:01; experiment: as above
[13] = target: HLA-A*31:01; experiment: as above
[14] = target: HLA-A*69:01; experiment: as above
[15] = target: HLA-B*07:02; experiment: as above
[16] = target: HLA-B*08:01; experiment: as above
[17] = target: HLA-B*08:02; experiment: as above
[18] = target: HLA-B*15:01; experiment: as above
[19] = target: HLA-B*15:09; experiment: as above
[20] = target: HLA-B*27:05; experiment: as above
[21] = target: HLA-B*40:01; experiment: as above
[22] = target: HLA-B*44:02; experiment: as above
[23] = target: HLA-B*46:01; experiment: as above
[24] = target: HLA-B*58:01; experiment: as above
[25] = target: HLA-B*18:01; experiment: as above
[26] = target: HLA-A*02:01; experiment: IEDB peptide-MHC binding, purified MHC/competitive/fluorescence; ≥ and ≤ were set here for values at or beyond the usual limits of such assays; details: source organism: Zaire ebolavirus
[27] = target: HLA-A*24:02; experiment: as above
[28] = target: HLA-B*15:01; experiment: as above
[29] = target: HLA-A*01:01; experiment: IEDB peptide-MHC binding, purified MHC/competitive/fluorescence; filed as Kd, often an IC50 or EC50 that approximates it; ≥ and ≤ were set here for values at or beyond the usual limits of such assays; details: source organism: Bacillus anthracis str. A2012
[30] = target: HLA-B*35:01; experiment: as above; details: source organism: Bacillus anthracis str. A2012
[31] = target: HLA-A*11:01; experiment: IEDB peptide-MHC binding, purified MHC/competitive/fluorescence; ≥ and ≤ were set here for values at or beyond the usual limits of such assays; details: source organism: Vaccinia virus Copenhagen
[32] = source organism: SARS coronavirus Tor2
[33] = source organism: Influenza A virus (A/mallard/NZ/1/97(H5N2))
[34] = source organism: Influenza A virus(A/swine/Shandong/fZC/2003(H9N2))
[35] = source organism: Influenza A virus (A/chicken/Hubei/wk/1997(H5N1))
[36] = source organism: Influenza A virus(A/swine/Shandong/fNY/2003(H9N2))
[37] = source organism: Influenza A virus (A/Puerto Rico/8/34/Mount Sinai(H1N1))
[38] = source organism: Zaire ebolavirus
[39] = source organism: Vaccinia virus Copenhagen
[40] = source organism: Mammarenavirus juninense
[41] = source organism: Mammarenavirus lassaense
[42] = source organism: Giardia lamblia ATCC 50803

Work on SEQSLRLVDA yielded a Kd [1, 32] of 3.61 µM, a Kd [2, 32] of 18.7 µM and a Kd [3, 32] of 0.47 µM. It also gave a Kd [4, 32] of 0.0916 µM, a Kd [5, 32] of 0.436 µM and a Kd [6, 32] of 0.00586 µM.

For IAGFIEGGW, the Kd [7, 33] was ≥ 20 µM, the Kd [8, 33] was ≥ 20 µM and the Kd [9, 33] was ≥ 20 µM. The Kd [10, 33] was ≥ 20 µM, the Kd [11, 33] was ≥ 20 µM and the Kd [12, 34] was ≥ 20 µM. The Kd [13, 33] was ≥ 20 µM, the Kd [14, 33] was ≥ 20 µM and the Kd [15, 33] was ≥ 20 µM. For the same sequence, the Kd [16, 33] was ≥ 20 µM, the Kd [17, 34] was ≥ 20 µM and the Kd [18, 33] was ≥ 20 µM. The Kd [19, 34] was ≥ 20 µM, the Kd [20, 33] was ≥ 20 µM and the Kd [21, 33] was ≥ 20 µM. The Kd [22, 33] was ≥ 20 µM, the Kd [23, 33] was ≥ 20 µM and the Kd [24, 33] was 0.0654 µM.

For NPALRMKWM, the Kd [7, 35] was ≥ 20 µM, the Kd [8, 35] was ≥ 20 µM and the Kd [9, 35] was ≥ 20 µM. The Kd [10, 35] was ≥ 20 µM, the Kd [11, 35] was ≥ 20 µM and the Kd [12, 36] was ≥ 20 µM. The Kd [13, 35] was ≥ 20 µM, the Kd [14, 35] was ≥ 20 µM and the Kd [15, 37] was 0.091 µM. For the same sequence, the Kd [16, 37] was 1.41 µM, the Kd [17, 36] was ≥ 20 µM and the Kd [18, 35] was ≥ 20 µM. The Kd [19, 36] was ≥ 20 µM, the Kd [25, 35] was ≥ 20 µM and the Kd [20, 35] was ≥ 20 µM. For the same sequence, the Kd [21, 35] was ≥ 20 µM, the Kd [22, 35] was ≥ 20 µM and the Kd [23, 35] was ≥ 20 µM. For the same sequence, the Kd [24, 35] was ≥ 20 µM.

VKYLEGHGF was tested, and the IC50 [26] was ≥ 160 µM, the IC50 [27, 38] was 14.4 µM and the IC50 [28, 38] was ≥ 72.1 µM.

For QAFEAGVDF, the IC50 [26] was ≥ 475 µM, the IC50 [27, 38] was 29.4 µM and the IC50 [28, 38] was 30.6 µM.

ITTFFTFAY gave a Kd [29] of 0.14 µM and a Kd [30] of 0.192 µM.

KLTEAITAA was tested, and the IC50 [26] was 2.05 µM and the IC50 [28, 38] was ≥ 171 µM.

SQMTSTFIM gave an IC50 [31] of 1.59 µM, an IC50 [27, 39] of 2.16 µM and an IC50 [28, 39] of 1.75 µM.

KDTPGGYCL was tested, and the Kd [1, 40] was ≥ 61 µM, the Kd [2, 40] was 11.9 µM and the Kd [3, 40] was 3.48 µM. For the same sequence, the Kd [4, 40] was ≥ 77.9 µM, the Kd [5, 40] was ≥ 78.1 µM and the Kd [6, 40] was 18.3 µM.

For SDLDMLTQS, the Kd [1, 41] was ≥ 77.5 µM, the Kd [2, 41] was ≥ 24.7 µM and the Kd [3, 41] was 6.1 µM. The Kd [4, 41] was ≥ 42.2 µM, the Kd [5, 41] was ≥ 78.1 µM and the Kd [6, 41] was ≥ 77.7 µM.

With YIASIFMPR the Kd [7, 42] was ≥ 20 µM, the Kd [9, 42] was 0.335 µM and the Kd [10, 42] was 0.0448 µM. The Kd [11, 42] was ≥ 20 µM, the Kd [13, 42] was 0.011 µM and the Kd [14, 42] was ≥ 20 µM. The Kd [15, 42] was ≥ 20 µM, the Kd [17, 42] was ≥ 20 µM and the Kd [18, 42] was ≥ 20 µM. For the same sequence, the Kd [19, 42] was ≥ 20 µM, the Kd [25, 42] was ≥ 20 µM and the Kd [20, 42] was ≥ 20 µM. The Kd [21, 42] was ≥ 20 µM, the Kd [22, 42] was ≥ 20 µM and the Kd [24, 42] was ≥ 20 µM.
